Experimental findings from a protein production outcome set (Wang et al. 2014) are described below.

The nature of the data set: label from the status in PepcDB records.
For “MNKVLINDTTLRDGEQAAGVVFTLEEKVAIAKFLDTIGVPELEVGIPAMGEEEMRAICAISNLGLKANLLAWNRAVISDIKASVACGMERVHIAIPVSGIQIAAKFHGQWRVSLQRLKDCISFAVDQGLWVAVGGEDSSRADENFLLDVALYAQEWGASRFRFCDTVGVLDPFTTYGKVKLLVSALTIPVEVHTHNDFGMATANALAGIKAGASSVNTTVIGLGERAGNAALEEVVMAIKRIYGVDMGIDTPRLLELSQLVAAASGANVPPWKAIVGENTFAHESGIHAHGVLQNPDTYEPFAPEEVGWERRLVVGKHSGRHSVSNLLEQHGIFLNPEETQSVLDAVRQQSIKKKRSLTTEELLNLVKEQRYSHAAR”, the protein production result is recorded as “failed”.
The result for “MNLDALVSWSRAQFALTAMYHWLFVPLTLGLGVIMAIVETIYYRNGKPEWKRYAQFWQKLFGINFAIGVATGIILEFEFGTNWSNYSLFVGDIFGAPLAIEGILAFFMEATFIAVMFFGWNKVSKGFHLSATWLTIIGASLSAVWILIANAWMQEPVGMTFNPDTMRNEMTDFWALVFSSTAINKFWHTISSCWTLGSVFALGVCGIYLLRKDDKHKDFALKNIKIIAPFGLAASLITAFTGDTSAYNVAQKQPMKLAAMEALYDSGQTDKDGLTADGKGLPLSLFGILNPAKETPQDDKEAFLFNVSVPRVLSVLGTRNPSGYVPGINNILEGGYVKADGTTAIPVDSMMQRGRRAIMALNDYSKAKQAGDMEAALQHKSVIDENFPYFGYSYIQHKNDIVPPVGLTYYSFRIMVGLGMLFILLFLMAWLLSFKPEKFSKMRWFHMIAIVCMPLAWVASQSGWIVAEVGRQPWTIQDLLPVQAAVSKLEAGSVIITFFVFLVLFSALLVAELNIMRKAIKKGPETE” reads “failed”.
With “MNLFRKCLLILGLASPLYLGLGQTSAHAEAVPPLAPTTCQATNLPQPSTAAIRELTPTGTLRVAINTGNYVLATEADDFGPFGISVDIAHLLAKGLGVPSEFTVVQAAAVSFERVSKNLSDIGFFGVDPWRAESVDYTNPYIQIEGAYIVRQDSPILTLADVDRAGIQIVVGKNSVYNLFLDRNIHHAHLVQAPTSPEVTGFMLAHKFPVGAGIRNQLVADMKRYGGLRILSTSFMIIHQAMATGKGRPQGLSYLQSFISELKKSGCIQELITKYAVDDAVVSP” the entry was “failed”; with “MNLFRKISEKLKSYEDWVTEANYYLDEGIYDKAVECYLKALEKKNTNPIDWFNLAYALYHLEKYDSALEAINEALKISPSNIYFAYLKGLIHYKRGEIILAYKYLKKASEKIKNEELFEILGDISVKYGRYEEALKYYLKSYKMANSKNLNALFKAGKIYLLFGDIDKAYDAFNEILQQNPSHECKKIVECMENVVNAINSYEDLNNGLTMIKNKDYIGALKIFNKVLQIDENSDISYYYKSVIAEIFEEYKKALEYIDKSISIFNRSLYYAKKGDILYKLGDEEGAIEAYNKAIKLNSQNPYAYFGLAILYYRKGELEKSSNFFDKVLETYLEELSEEDISALNLYSLIGKAETTGIPKYYHEAMKYVDNLINLENSSRWWYVKGYIYYKLGNYKDAYESFMNALRVNPKDISTLKSLAIVLEKSGKIDEAITTYTKILKIVNSLQFTCEIDNILEKLRSRKPTNLEIPSVLFDIPVMYHKPNITCFYASNLWKYMANNNPIGAYIYLSFIESYISLDEISQMVNDIKSKLSLEMYRYCELIDDYKSDESVLMQIKELLQKLGCML”, “failed”.
The result for “MNLFRSERGALALLLGVSALILLLGLGSRELWGPETRWANIALQMLQSGDYFDPYLKGAPYYDKPLPSYWLITASAWLMGGLGHWSLRLSSVIAAWLSIWLVYLIGERLFHKGTGLIAGWMLATTFYFAFWARVATADVLTVCGVLAAVWWYWRGPEDTRLGRYTVFFLILAATSLLKGLIGFVLPGLILLPHLLSQGRWKRHLNLRLVLALSIAALFYMVPFVLSHLYGAPSYGESGLSLVFRENVVRFFNPFDHVGPIYTYLIYLPAYTLPWAPCWILGLWLAARHWRQLQPNERWLVWALGLLFLFFTASGSRRSYYVLPLVPFAQLLGAWWLNRRLQLRQAVGKPVSRGWPLGFSCAALVMLLVLGVAYPWSNSGGGVMQFSADTRAAASRIAPWNQWRMVMVEIDNKLPMYLQNQGAPFYYVAETADFPRNGSSADFMAWLDKTSGQHWDPQRTLIFVQQKHDEPLMLGYLGEDHQLVRTTPTNGERLAKKPAQGSVAFIPRIPGN” reads “failed”.
On to “MNLFYRCRFFLFNNKVKNRGRGNKVVTNSASAKACTILFNGNNNTVILGESASLRGCLIIMSGDDHVLEIGAHTSIYKSNIAFEDHHCLISIGDYTTIQENGGISAVEPYSKIIIGKRCMFSVDVDIRNTDSHSIIKLDTGERINPGKNIFIDDKVWLGAYVQVLKGVSIGNNSIVGIRSLVTKDIPSHALAVGVPAKVIKTNVDWREERI”, for which the protein production entry is “failed”.
Take “MNLHTKTWVQRLPVPIDVAWDFFSQPGNLARITPPEMMLKAEGGNAGTAIYEGMKLNFVLYPFMMIPVRWTTEIMKVSKPDFFEDRQLSGPYEQWYHRHLFRDIEGGTEMTDIVEYALPFDLFGEVVEALIVGPRLDEVFEYRRCRVAEILGEMASETRLEHHHHHH”: the protein production result is listed as “not failed”.
With “MNLIINDKTASSSVGQTIGKAARLNHAHVGYVCGGHGLCQACYITVQEGADCLAPLTDVEKAFLSPRQIAAGGRMACQATIAKEGTVKVLSRPEEVRRMVFSNPFQLIGYAADMGKDTAQQIVPGVQNLIGRIQRGEMGGKDALGDMIESIQGAAGLVVEAIQQGPMALPIPFKEQIADLISKLPLPQIQLPSISLPQLPSISFPQLPFSLPKLPFSLPFLPQQPQATASLEKVTITVQPPAKD” the entry was “failed”.
With “MNLILTILSALGSFIVTNVDDIFVLMLLFSQARSQAKTGNSGIVSMESKGNRIYPRDIVIGQYLGFALLVLISLLATFGVTLIPDQWVGLLGLIPIYLGVKLFIKGEDEDEGNILSNLNKFNKFYLSVAFITFANGGDNIGIYVPFFSTLNNNQLIITVVTFFIMVAVWCLIGYRLARFRYVSETLEKYGRWIIPIVFIGLGIYIMVENETFRAILSLVN” the entry was “failed”; with “MNLLRHAVAGLCLVASAGCSGQDVMVRKQSEMETRLEHLHQASTTSGVRLAELSAEVTALRERLAAQGAELEQIKAGQRELQANITERLAQVAPAAGTPSRIEVVSRDGAPREKDGPPDAYLKAFGLYSANNFAGAVEAFQAFLAEHPDSEYAGNALYWIGECHYSRSDLPRALDAFRLVAERYPASTKVPDALLKSGYTLYAMKEPERAREILESLAAKYPRSPAAAKARERLAVATPKKQ”, “failed”.
With “MNLLTNEKTIKVFSSLIYTSLIISLIAMIFDVKLASKIFNTIGIISAILLFINKREIKKESMLIPLSILFLCVTNLIWEQLYKNSGSEIIGLYHSYHNVMKILFLGSSLTLFVMTFSSKHPLTKNALNIIYTIPFFLVLYYLLSEPEVRFSISDKIATSSAYMISFIGILTSQVILLKTEKRNLFFYFINHIIFFTIIVLSGTRAAILAYPLLSAIVLIPAILKDKKINLKLIILYIMVNIVCLVACQKTIMSRSENLISDINMYNQSNSESSVGARIAMYRSGLTSFIHAPMGQSAESRQLDIQKQAEQNPSLSGAALLTGIHLHNELIEAISLKGIIGGMALLLLYASLFYFSSFILKDYALTSLTLSLVIYGLSDVIFYGKNATTVWIVTYCLSILLVKRNRGVQ” the entry was “failed”.
For “MNLLVIGGHERMEKDYMVMAKKKGYKTKVYTTMSSKLNNSIGRPDAVVILTSTVSHKMSRTVESQAKKQDILIVRHKNSSKVAFNECLDMVDECLGNCSKCKLKDKQKQKNILEHHHHHH”, the protein production result is “failed”.
As for “MNLPMTMSLQTVSFEEFITTIAAALGCGLLVGLERERSKLKHEYKTFAGFRSFAISSLLGAICFLFGTAIGIVGALLIGAISIVSLKNQPNDPGVTTELAFIMTYFIGALCIWNISLAAGLAVIMTIILLAKQSMHGIASQWITESELRDGIFLLALLLIALPLVPNKPFWGPVLNPHVILKLLTLILFVQALAHIAKRLLSSKNALLLSSLASGFVSSTATIASLGLEVRSGRANAKTNAGAALMSCVSTLVQTLIIVVGISLAWFKLIIFPTLIALAFLAVWAFILLRKAEPSTTSPELDSRMFSLKEAVIIAGTLTLIQAGVYGLSLYLGNAGLIAGTLLASLFEIHAAIAAVIVQGEPNNSQTSLLIAFMGGFAVHAIAKSINSAISGGLHYALAFIPAQILHMTIFIGLLWMNIHWF”, the protein production result is “failed”.
The result for “MNLRLAAALCAALSLCAVLAVPANFPALGGDARLTLAVFALATCAWIGTPIDDTYIALGAGLALTATGVISSDTLFGTLGEDTVWLLICAFVLAAAVARTGLAGRAAAFLVGGARTVRQLVHLTTAALVVTAFAMPATSGRAALALPVFLALAKVLADRKRLVVMLALLFPTVILLSAVATLIGAGAHLITVSVLWEATGDRIGFTQWLLLGLPLAVASSHLAAETVLLTTTRRADRAGPVRITAEEIQRHSESPVTGPWTQAEKRCALLLATVVALWCSEPLHRVSPAVVALIGAVVASSPALGTVRLKDALKTVPWSLLLFMAATMAMGVALADSGAAGWLVSGLPADVAPAVFLGVVVAVSTAAHLVLQSRSARSSVLVPLVIAAAVGAGVNPVAAALASTAAAGFCHTLPASAKPVTLFSDVPGVPTYTPRDLLRLSAVLAPLTALLVLFFAAAVWPLLGVPVTR” reads “failed”; that for “MNLYFRLFWLLFWRTRHCRKIDFLGTSRITYRALPSDCDINFHLTNSRYPAFMDLARTYMLAEMGLLKRFLKLKWMPIVNAAEFTYIRDIKPLKKFEIETKVVGWDEKYFYIEQRFISERGLHCIVHVRGVFVCKGKQIPLEVLVKEAGYTAPAPELPPEVVKWKAFLQLKKERNL”, “failed”; that for “MNMKFTKILVQIAALYVFYMVGTWVQEMLNIPIPGSLIGMFLLLVLLSLKVLPVKWFDLGAETLVAIMPFLLIPPTLGLMNYGAFFMSKGISLFITVVASTFLIIIVAGHTGQYLANRKERESR”, “failed”.
The result for “MNMLIDISTEILMSLLFFYLFYRIMVKGTNGVIEILVEAMMFSMFVGLILYFQTRITFTTASMAVDMPMAIMGGAVAWAYFTRNSSMTTSRKSAFISLLISNEVAMAYFLTIITYPNIISHGVFYTLVHSVSSYLFIASMEIEMILSLLFLEKDSIKKIVFSGVVFSGLFNPFFMPQSNFSLYGTIYFTAVMVFFMAILFEIIAVKFDTMNFGKIVMITLFFGLMGFSAAGLFASIVFGSLITLLLFDISMMAQMAFYFYFLFRNTEIRGRPGWSYNRYSMFYVLLFSFAAEWLASASIISVVNGVNGVVPFLSNFGVGVYSGIVPAILNAIFIFGSVTNSYVFLIIMGVEMASLVIVRIGRLRWKEKNGISHSP” reads “failed”.
As for “MNMLVINGTPRKHGRTRIAASYIAALYHTDLIDLSEFVLPVFNGEAEQSELLKVQELKQRVTKADAIVLLSPEYHSGMSGALKNALDFLSSEQFKYKPVALLAVAGGGKGGINALNNMRTVMRGVYANVIPKQLVLDPVHIDVENATVAENIKESIKELVEELSMFAKAGNPGV”, the protein production result is recorded as “not failed”.
With “MNMNHYRPVILADQRVVSDFELDPLTRKISIKILQGHEQGNKGMVDTLRQNLQQRLGVPVEIPLALMNHLVKLVRDGNEVITATLAAGNDINEDGKAASYQVIDAEPGDHTGVQVGLAIDIGTTTVVVYLVNMVNGDIIAKASDYNGQIKLGDDILSRIMAAREEKGLQELQALIVNTLNALIQQLCLEAELKPQAITGVCIGANTTMVHLCLGLDPGSICRAPYRPAVNNAGIFCAGEIGLAVHPLAPTYCLPSIGSYIGGDVLAGILVSGMHKQEEVALLADIGTNGEFILGNQEWLVGCAGAAGPALEGGVTEWGIRAEQGAVDQVSIDSEHHVGYTTIDNAPARGICGSGLIDSLAELFLNGLINRAARFTDGRERFTIVPADESATGKEIFISQKDINSLMRTKGAVNAALEVLMESVGCQWEEIAKFYAAGAFGQYLPIESAVTIGLYPDLPREQMLRLGNSSGEGARQVLLSNSKRQEIEEIAGKITYFEMNASSSFMDKYGGSRFLPHTNMDLFPSVQEKLAVRQRSRC” the entry was “failed”.
